Source: article PMC3220268

Experiments:
actin filaments = actin filaments (UniProt P68135); assay: co-sedimentation; actin co-sedimentation (pelleting) of rArp2/3 complex with actin filaments, as described in ref. 46
[1] = molecular target: gelsolin-capped actin filaments (UniProt P68135); assay: pointed end capping assay (elongation from gelsolin-capped actin filaments); gelsolin-capped actin filaments (100 nM), 4 µM actin with pyrene-labeled actin; slowing of pointed end elongation by rArp2/3 complex

Row | Substance | Kd (actin filaments) [nM] | fold decrease in affinity against WT [1] [fold]
1 | recombinant Arp2/3 complex with ARPC4 R105A and R106A mutations (from UniProt P61158 1-418; P61160 1-394; O15143 1-372; O15144 1-300; O15145 1-178; P59998 1-168; O15511 1-151) | 1500 | 
2 | recombinant Arp2/3 complex with Arp2 T237A, T238A, and Y202A mutations (from UniProt P61158 1-418; P61160 1-394; O15143 1-372; O15144 1-300; O15145 1-178; P59998 1-168; O15511 1-151) |  | 8
